Results on 1 substance are retold here after article PMC5976236.

Assay [1] deals with recombinant human galectin-3 (human) (UniProt P17931). Nature of the assay: atomic force microscopy force spectroscopy; Gal-3 attached to a slide, mDectin-2 or SIGN-R1 (untreated or PNGase F-treated) on the AFM tips; PBS.
For assay [2], the target named is Muc2 from colon of wild-type C57BL/6 mice (mouse (endogenous in C57BL/6 colon)) (UniProt Q80Z19). The experiment in a line: atomic force microscopy force spectroscopy; C-type lectins attached to the AFM tip via the PEG linker, mucin covalently attached to the glass slide; PBS; 1024 force curves.
Sequence of Muc2 from colon of wild-type C57BL/6 mice (mouse (endogenous in C57BL/6 colon)) (Q80Z19 21-4576): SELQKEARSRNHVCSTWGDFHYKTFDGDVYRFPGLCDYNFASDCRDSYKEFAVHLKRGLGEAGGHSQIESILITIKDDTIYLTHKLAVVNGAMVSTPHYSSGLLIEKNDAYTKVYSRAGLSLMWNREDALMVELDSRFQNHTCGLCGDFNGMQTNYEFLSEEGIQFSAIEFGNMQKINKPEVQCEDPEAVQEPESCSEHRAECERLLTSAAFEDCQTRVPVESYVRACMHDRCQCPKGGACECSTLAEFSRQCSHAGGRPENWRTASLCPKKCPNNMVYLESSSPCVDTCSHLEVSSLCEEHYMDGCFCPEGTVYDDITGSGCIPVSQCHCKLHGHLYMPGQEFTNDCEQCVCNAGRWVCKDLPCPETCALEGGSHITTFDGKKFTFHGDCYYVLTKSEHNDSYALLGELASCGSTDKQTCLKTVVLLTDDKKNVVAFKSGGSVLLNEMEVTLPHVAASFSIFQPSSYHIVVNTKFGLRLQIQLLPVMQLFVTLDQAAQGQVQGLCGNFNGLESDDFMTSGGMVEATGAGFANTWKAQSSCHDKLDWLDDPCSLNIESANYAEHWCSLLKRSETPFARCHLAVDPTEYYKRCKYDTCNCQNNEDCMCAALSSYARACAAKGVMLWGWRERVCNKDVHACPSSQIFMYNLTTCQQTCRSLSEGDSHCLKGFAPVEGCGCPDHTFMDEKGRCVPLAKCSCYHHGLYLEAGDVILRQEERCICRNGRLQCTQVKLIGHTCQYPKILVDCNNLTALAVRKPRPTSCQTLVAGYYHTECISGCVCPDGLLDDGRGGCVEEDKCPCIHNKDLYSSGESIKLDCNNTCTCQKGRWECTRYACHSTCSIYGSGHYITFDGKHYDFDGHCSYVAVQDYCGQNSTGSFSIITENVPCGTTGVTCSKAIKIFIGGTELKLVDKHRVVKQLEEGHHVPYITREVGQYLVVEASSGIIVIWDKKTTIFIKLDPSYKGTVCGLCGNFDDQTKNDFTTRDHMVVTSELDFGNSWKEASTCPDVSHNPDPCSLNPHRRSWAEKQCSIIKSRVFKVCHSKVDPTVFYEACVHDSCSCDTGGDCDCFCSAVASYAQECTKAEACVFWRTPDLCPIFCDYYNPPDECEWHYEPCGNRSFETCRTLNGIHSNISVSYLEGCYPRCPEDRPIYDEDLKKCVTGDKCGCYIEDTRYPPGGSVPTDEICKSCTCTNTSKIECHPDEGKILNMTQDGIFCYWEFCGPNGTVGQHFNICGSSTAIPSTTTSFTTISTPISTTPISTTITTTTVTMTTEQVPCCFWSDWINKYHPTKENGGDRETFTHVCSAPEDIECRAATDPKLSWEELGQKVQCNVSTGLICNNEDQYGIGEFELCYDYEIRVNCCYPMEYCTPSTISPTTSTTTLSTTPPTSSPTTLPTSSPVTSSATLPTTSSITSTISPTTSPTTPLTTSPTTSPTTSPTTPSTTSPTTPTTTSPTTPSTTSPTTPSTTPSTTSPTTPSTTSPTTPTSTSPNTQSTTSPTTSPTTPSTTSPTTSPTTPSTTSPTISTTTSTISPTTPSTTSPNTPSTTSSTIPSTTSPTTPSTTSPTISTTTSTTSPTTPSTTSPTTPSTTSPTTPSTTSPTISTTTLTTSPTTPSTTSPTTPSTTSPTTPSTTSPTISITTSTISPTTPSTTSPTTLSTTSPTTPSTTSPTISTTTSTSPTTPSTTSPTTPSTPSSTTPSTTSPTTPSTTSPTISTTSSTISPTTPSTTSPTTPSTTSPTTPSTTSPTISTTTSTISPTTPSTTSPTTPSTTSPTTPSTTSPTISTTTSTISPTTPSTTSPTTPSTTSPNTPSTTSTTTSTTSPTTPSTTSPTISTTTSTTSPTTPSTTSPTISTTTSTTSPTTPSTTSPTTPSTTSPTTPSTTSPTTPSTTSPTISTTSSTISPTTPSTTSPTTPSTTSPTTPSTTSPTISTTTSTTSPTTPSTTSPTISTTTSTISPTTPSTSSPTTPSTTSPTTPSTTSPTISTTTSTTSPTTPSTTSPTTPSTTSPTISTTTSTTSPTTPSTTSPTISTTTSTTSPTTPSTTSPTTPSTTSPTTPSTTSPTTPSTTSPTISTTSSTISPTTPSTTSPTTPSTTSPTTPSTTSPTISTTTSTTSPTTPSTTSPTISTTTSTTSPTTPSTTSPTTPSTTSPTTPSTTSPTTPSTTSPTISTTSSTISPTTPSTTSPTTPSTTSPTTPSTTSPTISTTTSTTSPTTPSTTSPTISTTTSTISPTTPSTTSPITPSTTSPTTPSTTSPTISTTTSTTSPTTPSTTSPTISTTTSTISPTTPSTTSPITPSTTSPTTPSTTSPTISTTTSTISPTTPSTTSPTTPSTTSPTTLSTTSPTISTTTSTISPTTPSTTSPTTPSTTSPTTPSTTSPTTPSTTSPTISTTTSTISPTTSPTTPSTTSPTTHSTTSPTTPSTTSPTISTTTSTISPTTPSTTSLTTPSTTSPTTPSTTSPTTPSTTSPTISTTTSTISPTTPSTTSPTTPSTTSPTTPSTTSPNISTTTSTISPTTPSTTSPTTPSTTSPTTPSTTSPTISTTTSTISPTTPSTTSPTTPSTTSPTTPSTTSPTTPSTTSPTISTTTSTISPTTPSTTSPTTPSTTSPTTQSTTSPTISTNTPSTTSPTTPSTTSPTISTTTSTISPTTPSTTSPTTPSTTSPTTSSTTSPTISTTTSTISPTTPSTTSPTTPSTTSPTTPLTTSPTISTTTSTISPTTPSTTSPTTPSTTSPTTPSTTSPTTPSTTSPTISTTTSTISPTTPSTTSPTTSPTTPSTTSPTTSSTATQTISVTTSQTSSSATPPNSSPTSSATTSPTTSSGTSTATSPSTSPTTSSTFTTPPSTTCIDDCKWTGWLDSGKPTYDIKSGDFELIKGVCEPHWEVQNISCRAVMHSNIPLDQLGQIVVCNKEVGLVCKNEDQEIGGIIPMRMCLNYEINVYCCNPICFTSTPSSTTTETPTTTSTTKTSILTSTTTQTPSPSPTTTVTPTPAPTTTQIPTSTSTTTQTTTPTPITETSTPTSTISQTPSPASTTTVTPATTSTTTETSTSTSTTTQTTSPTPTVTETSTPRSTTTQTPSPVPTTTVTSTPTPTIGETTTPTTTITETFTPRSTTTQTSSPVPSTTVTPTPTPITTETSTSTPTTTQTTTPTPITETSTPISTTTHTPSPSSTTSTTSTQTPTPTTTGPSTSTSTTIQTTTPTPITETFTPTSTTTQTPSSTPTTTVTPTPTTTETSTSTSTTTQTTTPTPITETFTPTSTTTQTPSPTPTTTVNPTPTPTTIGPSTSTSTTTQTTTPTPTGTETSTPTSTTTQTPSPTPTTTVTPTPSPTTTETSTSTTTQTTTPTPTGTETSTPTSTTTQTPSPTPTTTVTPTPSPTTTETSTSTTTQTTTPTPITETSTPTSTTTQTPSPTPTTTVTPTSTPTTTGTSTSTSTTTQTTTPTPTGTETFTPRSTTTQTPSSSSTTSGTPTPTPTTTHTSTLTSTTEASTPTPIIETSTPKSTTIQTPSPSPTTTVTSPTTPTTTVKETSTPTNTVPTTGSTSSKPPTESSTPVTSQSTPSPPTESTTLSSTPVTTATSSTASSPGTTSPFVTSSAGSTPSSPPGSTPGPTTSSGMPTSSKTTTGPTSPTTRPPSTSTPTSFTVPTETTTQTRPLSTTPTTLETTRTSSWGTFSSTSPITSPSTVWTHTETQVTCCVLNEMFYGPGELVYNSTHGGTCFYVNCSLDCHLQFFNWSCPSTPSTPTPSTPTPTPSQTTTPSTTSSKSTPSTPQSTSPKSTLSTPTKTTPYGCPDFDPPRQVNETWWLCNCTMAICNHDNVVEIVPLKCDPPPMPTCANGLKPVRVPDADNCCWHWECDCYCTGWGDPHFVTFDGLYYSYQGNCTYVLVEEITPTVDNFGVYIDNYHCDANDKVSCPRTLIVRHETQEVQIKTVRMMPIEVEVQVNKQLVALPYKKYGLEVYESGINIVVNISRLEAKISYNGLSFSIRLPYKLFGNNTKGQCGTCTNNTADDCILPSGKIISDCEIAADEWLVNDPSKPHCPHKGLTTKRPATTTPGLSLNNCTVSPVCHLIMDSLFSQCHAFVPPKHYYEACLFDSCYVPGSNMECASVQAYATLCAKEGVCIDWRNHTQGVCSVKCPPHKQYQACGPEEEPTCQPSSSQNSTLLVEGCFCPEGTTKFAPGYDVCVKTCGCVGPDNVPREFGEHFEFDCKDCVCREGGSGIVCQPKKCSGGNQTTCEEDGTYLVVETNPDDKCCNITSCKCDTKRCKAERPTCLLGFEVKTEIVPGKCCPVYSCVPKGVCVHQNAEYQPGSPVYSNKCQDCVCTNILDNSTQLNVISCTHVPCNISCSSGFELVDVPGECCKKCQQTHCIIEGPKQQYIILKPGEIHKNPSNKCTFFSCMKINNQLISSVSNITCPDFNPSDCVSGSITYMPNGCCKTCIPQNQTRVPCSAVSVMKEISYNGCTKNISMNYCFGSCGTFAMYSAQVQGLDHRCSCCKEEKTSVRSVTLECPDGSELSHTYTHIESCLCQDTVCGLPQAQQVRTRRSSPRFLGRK

Sequence of recombinant human galectin-3 (human) (P17931 whole entry): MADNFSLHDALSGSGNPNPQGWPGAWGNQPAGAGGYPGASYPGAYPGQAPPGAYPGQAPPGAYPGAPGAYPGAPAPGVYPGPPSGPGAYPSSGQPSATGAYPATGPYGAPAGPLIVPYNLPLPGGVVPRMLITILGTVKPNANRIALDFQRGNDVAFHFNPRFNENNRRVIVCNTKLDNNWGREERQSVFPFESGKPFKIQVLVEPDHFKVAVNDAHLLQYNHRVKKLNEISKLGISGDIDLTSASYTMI

Regarding “recombinant murine SIGN-R1 (from UniProt Q8CJ91 1-325) (receptor)”, in assay [1], the modal value of adhesion was 17.1 pN. Also, in assay [2], the adhesion force of some binding events came out at 3210 pN and the modal value of adhesions is 292 pN.
